Laboratory results as given in the DeepSol protein solubility set.

Assay: soluble on expression in E. coli; label from the status in PepcDB or PDB records

Sequence | soluble on expression in E. coli
MSLTANSHAVMTVGDQTVSPQEFRLAYQRQVSDLSRQFGTRLTTEQAKAFGIDRQVFSQLAAGAALDELASKMNLGLSENRLANLIAEDPAFKSVNGQFDRNLFSERLRNSGFREDDYIKERSKVAVRSQIVEAVSDGFAAPQVLVDALKQYRNEQRAVDYVILSNAVIPPVKAPGDDVLTPWFETNKSKYRAPEFRKFTYVKLEPSDIAEPASVTDAQIADYYNSHKDSFRTAGRRTVEQLTFPDKEMAAAAAEQIRLGNTTYDQVVKDQGKTASDVTLGEFTKDTIPDQSIADAAFAIQKDGGVSPVVDGSFGPILLRVTGIKPETEGHHHHHH | soluble
MSLTDDRYTVISADCHAGADLLDYRPYLAKRHHDAFDAWAATYVNPYEDLLADTADRNWNSERRLAELAADGIVAEVVFPNTIPPFFPSASLMAPAPTAAEFEQRWAGLRAHNRWLADFCAAAPGRRAGVFQILLNDVEEAVKEISWAAGAGLRGGLLLPGTPPGSGLPELYSKAYDPIWAVCEELDVPVNHHAGSASPPLGDEPAARAVFMVETTWFSHRALWHLVFGGAFRRHPGLRLVLTEQGSGWIPGVLDMLDYYHGRLVAAGPKSATAEAKFGAGLDRAMGKGPSEVWRDNCFVGASFMRPHEVPLRDRIGLDKIMWGSDYPHDEGTYPYSREGLRIAYAGLPRTEIAAMAGGNAARVYGFDLSEGHHHHHH | soluble
MSLTDEQFNPQDEEIEIEAIGVEVSCQPIELYKVLKIANAVSGGGEAKHVISEGYVFVNGDVETRKRCKVFDGDLIEFNQEFYLVICDAPVTEPESFDTQPELASSHKPTKTQKKSSANTSAKSKPSKNNKTVSGQKKAKNDKKSPQSDSKSPSGRSAIRFFEGGSHHHHHH | soluble
MSLTDLKEVARLAGVSRATAARAFASPEVVRAETRERVFVAARELGFRPNRLGRQLRLQTTNLIGVIVPNLLNPVFAEQFQAMERAARARGYNLLLATTDYSAERESAVVEELLRQRVDGLVLTVTDAEHNRVLESLAIEDTPFVLAYHQTDNEEYSAVSVDNRAGMALATRYLIDAGHRCIAMVAGPVMQSDRARLRYEGYRDAMNEGGLEARPVIEMPAHTNADFAALKPLLRGPTAPSALVCSNDLLAISLIAELRRNGWGVPERLSVIGFDGIALGTQMHPTLCSVVQPIAELAHIVIDQLLARIAGAVPVSHCLPCHIRPGESTQPYKEMLHAQPEGHHHHHH | soluble
MSLTEPEDPSRERLKHHFAQRVIHQARQILEIWQRLQRSEWSTTDMSELCEANLRLLRFAERFEQPEHTQLARSISQSLEAVDANRGRLSSNLITDLNRLMQRLSRTGLRHGDQLEQTFLPPLRKPIYVMLQDHDRAERLAKQLEFFGLSAQSLDSIPAFRSSMVERLPAAIVIDVDFCGAGMGLTLAAEAQVGLEQKLPLLFFSLHETDTPTRLAAVRAGGQEFLTGTLEASSLLEKIEVLTCVAQYEPYKVLIIDDSRAQALHTERLLNSAGIVTRTLIEPIQAMAELADFQPDLIILDMYMPACTGTELAKVIRHNDRYVSVPIIYLSAEDDLDKQLDAMSEGGDDFLTKPIKPRHLITTVRNRAARARNLKARMVRDSLTGEGHHHHHH | not soluble
MSLTEPRQAHRLHILKVALDVPLDGVFDYLSEAPVQIGQRVVVPFGPRRQVGIVVDLADASDVAPAKLKSIIQYFDQEPVLDGEFFSLLKFCADYYQYPYGQALLSALPARLRQTEPARARQQFCYWLNSAGQAADISAIPVRQAVQRRIFAALRAHGRLNEAELAELSPGWRKGLAALRERGWIEEEQVYAGLGSTLHASSVQPELNEEQVLAVQSILQYRDTFRPWLLHGITGSGKTEVYIRLLQAVLEGNQDQALVLVPEINLTPQLEARFRTRLPQFPLVTLHSNLSESERLQNWRLAQTGAARIVIGTRLSVFTPLPGLKFMIVDEEHDTSYKQQDGMRYHARDVALVRAQRRNIPIVLGSATPALETWHNARNGRYGLLTLQQRAVSQSQLPQVNCVDVSRVQMQEGLSPQLLKALKVRLERGEQSLLFINRRGYAPVLLCNACHWIAPCMRCSSRLVVHLRQGFLRCHHCGHEQNIVRQCPSCGNADLHPTGNGTQRLEETLTRLLPEARVLRVDRDSTRRKHALSEMLSAVHVGEVDILVGTQMLAKGHDFPNLTLVGVLDTDSALFSPDFRAAERLFAQLMQVAGRAGRADKPGEVLIQTSFPEHQLFNALRVQDFAAYAASLLQEREVAQFPPCEFLALIKAEANEYGPVQRFLQFAADSARALGTDALVYDPVRPQMERLKGMERGQLLFQAATRQTLQIVLRQLTPQLRAHPLSNKIRWAVDVDPQEEGHHHHHH | not soluble
MSLTFYWYPKCGTCRKAKKWLEEHGKEINEIHIAEQPPSKEELKALYEKSGLDLKKFFNTSGMKYRELNLKEKLYHMSEDEQLELLASDGMLIKRPLTTDGEKVTVGFKEDQFEENWA | not soluble
MSLTHSCRLSVAPMLDWTDRHCRYFHRLLSAQTLLYTEMVTTGAIIHGRGDFLAYNQEEHPVALQFGGSNPKDLAHCAKLAQERGYDEINLNVGCPSDRVQNGRFGACLMGEPDLVAECVAAMRAVVDIPVTVKTRIGIDDQDSYEFLTQFIATVAEKGGCEQFTIHARKAWLSGLSPKENREIPPLDYPRAYQIKRDFPHLTIAVNGGVKSLEEAKLHLQHLDGVMIGREAYQNPYLLAEVDQQIFGLETPVKKRSQVIHEMMPYIERELSQGTHLGHMTRHMLGLFQNMPGARQWRRHISENAHKPGAGLEVVEQALAKIPYQELGEGHHHHHH | soluble
MSLTIFTKERKLLLAVESSCDETSVAVIEDGDKILSNIVASQIKSHQRFGGVVPEVASRHHVEQVTICIEEALTEAKVTPEELSGVAVTYGPGLVGALLIGLSAAKAFAWAHQLPLIPVNHMAGHIYAARFVAPLEFPLMALLVSGGHTELVYMKEDGSFEIVGETRDDAAGEAYDKVGRVLGLPYPSGKEIDALAHEGTDTYQFPRAMLKEDNYDFSFSGLKSAFINTVHNAEQRGEALSTKDLAASFQASVVEVLVTKTIRACQEYPVKQLLIAGGVAANQGLREAMRHAISEQLPAVTLLIPPLKLCGDNAAMIGAAAFIEAEKNHFASYNLNAEPGVSFMTISEEGEGHHHHHH | soluble
MSLTKDPEWLTKEFAGNPIRTGRTIEDPDFPRIAITYSIQENEDNSKQIQDEMKDIIKDYNDYYHTAWSIEDIERYNGDINNRLARKKAEFKEFGKQIDLVIVVDRLLTGFDAPTIQTLFVDRNLSYANLIQAFSRTNRTYPGKTKGLIVTFRKPSTMEQNVKDATKLYSEAQEESDLVYPTYDESKKRFKKAHKLLTTLVPNPTDINEHSPLEIRIEFVKAFQELNNTYEALVTYDEYNDDMEKSKVLQEQINTLEEYIGVYNTVKGSLVDEGAQDGPGPDFSGIEFYGENAIKVYDIDSTYIDRLLGTYSANNQNIRDEIEKALQKLKKLEIVKDVYRAMLNAIDTKKIDSEEDILVVKRRFFTESYDKAIKEFANTWFVEGNELHLSAIQYVIGSDPIPNIRGIINSKQFDKYKAIHPDAKPLKYGPEMKRQWRKTLDEVIVPLADELREGHHHHHH | soluble
MSLTKIAKVIVDVPLMQTDKPFSYKIPEALLSVITAGSRVHVPFGKGNRLLQGFVVSVDSGSAQHLKTIIDVLDVEPVLNQEQLELADQMRKTVFSYKISILKSMIPNLLNSNYDRLLKPKKGLSQEEKDLIFAGKKQINFSQLNQEIQTKSLSLIQAGKIDIEYLAKDRKTIKTQKCYDVNLEKLSHLLINKRAKKRQELKDYLANHPQSGPLSDLYRLFSREVVHYFIKEAVLNISQVEVNRTQSYFENIIQSDFLDLNPEQQTAVEQITAAIGSSNKPYLLEGITGSGKTEVYLHVIDQTLKLGKTAIVLVPEISLTPQMTSRFISRFGSQVAIMHSGLSDGEKFDEWRKMKSNQAKVVVGARSAIFSPLKNIGAIIIDEEHEATYKQESSPRYHAREVALLRAQYHQAVLVLGSATPSIESRARASRGVYNFLQLSQRANPQAHIPKVKIVDFRDYIGQQKVSNLTPVLLDKIKDRLIKKEQVVLMLNRRGYSSFIMCRDCGYVDNCPNCDISLTLHMDTKTMNCHYCGFLKGIPYNCPNCQSRQIRYYGTGTQKAYDELKQVLPEARILRMDVDTTKRKGAHEKILTKFGRHEADILLGTQMIAKGLDFPNVTLVGVLNADTSLNLPDFRSSERTFQLLTQVAGRAGRANKPGEVLIQTYNPNHYAIQLAREQDYEAFYRYEMRIRKALSYPPYYFTVGLTLSHKDEQEVIKKSYEIVTLIKEGLTDKIKILGPTPKPVARTHNLYHYQIIIKYRFEDQLEIVLNHILDLTQAKENKKLRLIIDHEPQSEGHHHHHH | soluble
MSLTKKDVIKLLEQIATYMELKGENTFKISAYRKAAQSLELDERPLDEISDVTELKGIGKGVAEVINDYRETGESQYLQQLQEEVPEGLIPLLKIQGLGSKKIAKLYKELNIVDKASLQVACENGKVSELSGFAKKTEQNILEAVKQLGAKKDRYPIDQMRRLNQEIIDYIDTLNYIDQYSSAGSFRRFKEMSKDLDFIISTDNPKAVQQQLLNIPNKVKEVAVGNTKVSLELAYDDETIGVDFRLIEPRAFYHTLQHFTGSKEHNIRIRQLAKARDEKVSEYGIEQADGTLIQYDSEAKIYEHFNVNFIPPAMREDGSEFDKDLSNIITLDDINGDIHMHTTYSDGAFSIRDMVEANIAKGYKFMVITDHSQSLRVANGLQVERLLRQNEEIKALDKEYSEIDIYSGTEMDILPDGSLDYDDEILAQLDYVIGAIHQSFNQSEEQIMERLANACRNPYVRHIAHPTGRIIGRRDGYKPNIEQLMALAEETNTVLEINANPHRLDLNAEIVRKYPNVKLTINTDAHHTNHLDFMNYGVATAQKGFVTKDRVINALSREAFKDFIENNIKLKKEGHHHHHH | soluble
MSLTLAFAYVRASTIEEVRQGSNERQKEAIRQYTYQKGYELEIFEDKAKSGRNTLRPEFERMLKSLDRRPQIVIVSKIDRFARSLSDLLKTLEYLDQNGVGFVSVNDPGIDTTTPNGRLLLQILGAFAEFERNMINSRTKAGREQAQSKGVKFGRPPLKTRNGSFIDRRKVMELKQKGLSARAIAKSLECSTTPILRILRENEGHHHHHH | soluble
MSLTLPSEKPATDVAAQCFLNALIRETTDWKLTEYPPDELIIPLDEQKSLHFRVAYFSPTQHHRFAFPARLVTASGSYPVDFTTLSRLIIDKLRHQLFLPVPLCETFHQRVLESHAHTQQAIDARHDWTALREKALNFGEAEQALLTGHAFHPAPKSHEPFNRREAERYLPDMAPHFPLRWFSVDKTQIAGESLHLNLQQRLTRFAAENAPQLLNELSDNQWLFPLHPWQGEYLLQQGWCQALVAKGLIKDLGEAGTSWLPTTSSRSLYCATSRDMIKFSLSVRLTNSIRTLSVKEVKRGMRLARLAQTDGWQMLQVRFPTFRVMQEDGWAGLLDLNGNIMQESLFALRENLLVDQPKSQTNVLVSLTQAAPDGGDSLLVSAVKRLSDRLGITVQQAAHAWVDAYCQQVLKPLFTAEADYGLVLLAHQQNILVQMLGDLPVGFIYRDCQGSAFMPHATDWLDSIGEAQAENEGHHHHHH | not soluble
MSLTLRDVAAEAGVSPMTASNALRGKPGVKESTRAKVIAAAKKLNYRINLTASMLKSGRSNIIHVIVNEFDSPFYSKLTQALSNEIVSRGLIPFIEQTQYSPDAAEHALSSNPFSGQLFDGEILHATGLGTNVPLSKLNGGRPFVLLDACEETPTVDAVNFPNEEAERAAMQHLIDRGCRNIAIVGHRFAPRADLAHAQNAFALRLRGACGALSDAGLPYDESMVFEAGDVANGIIAGHAIAERILAARSGHGGTEFDGACCANDFAAFGVIRGLADRGLRVPQDVKVIGFDGVTSGSYTTPALSTIQVDFMQLAKFSVDMLSERIDHGADEALPPRRAIIGYQLVDRESTAEGHHHHHH | soluble
